According to paper PMC5703498, “Plant-type phytoene desaturase: Functional evaluation of structural implications” (PLoS ONE, 2017):

Key:
Format in all cases: biochemical, Oryza sativa
[1] = substrate: CCCCCCCCCCC1=CC(=O)C(C)=C(C)C1=O; test: Michaelis-Menten kinetics of purified enzyme in liposome assay (KM); conditions: FAD electron acceptor; same substrate cavity as the carotene, successively occupied, near the FAD
[2] = substrate: CC(C)=CCC/C(C)=C/CC/C(C)=C/CC/C(C)=C/C=C\C=C(/C)CC/C=C(\C)CC/C=C(\C)CCC=C(C)C; test: Michaelis-Menten kinetics of purified enzyme in liposome assay (KM), HPLC; conditions: FAD hydrophobic substrate cavity, C11-C12 near the flavin
[3] = substrate: CC(C)=CCC/C(C)=C/CC\C(C)=C/C=C/C(C)=C/C=C\C=C(/C)CC/C=C(\C)CC/C=C(\C)CCC=C(C)C; test: as above; conditions: FAD competes with phytoene at the active site
[4] = substrate: CC(C)=CCC/C(C)=C/CC/C(C)=C/CC/C(C)=C/C=C\C=C(/C)CC/C=C(\C)CC/C=C(\C)CCC=C(C)C; test: Michaelis-Menten kinetics of purified mutant in liposome assay (KM); conditions: FAD hydrophobic substrate cavity
[5] = substrate: CCCCCCCCCCC1=CC(=O)C(C)=C(C)C1=O; test: as above; conditions: FAD electron acceptor; same substrate cavity as the carotene

Row | Protein | Km [1] [mM] | Km [2] [mM] | Km [3] [mM] | Km [4] [mM] | Km [5] [mM]
1 | Phytoene desaturase (OsPDS-His6) (Oryza sativa Indica Group) (protein) AGQLSSFFRNSEQPTKPLQVVIAGAGLAGLSTAKYLADAGHKPILLEARDVLGGKIAAWKDEDGDWYETGLHIFFGAYPNIQNLFGELGINDRLQWKEHSMIFAMPNKPGEFSRFDFPETLPAPLNGIWAILRNNEMLTWPEKVKFALGLLPAMVGGQAYVEAQDGFTVSEWMKKQGVPDRVNDEVFIAMSKALNFINPDELSMQCILIALNRFLQEKHGSKMAFLDGNPPERLCMPIVDHVRSLGGEVRLNSRIQKIELNPDGTVKHFALTDGTQITGDAYVFATPVDILKLLVPQEWKEISYFKKLEKLVGVPVINVHIWFDRKLKNTYDHLLFSRSSLLSVYADMSVTCKEYYDPNRSMLELVFAPAEEWVGRSDTEIIEATMQELAKLFPDEIAADQSKAKILKYHVVKTPRSVYKTIPDCEPCRPLQRSPIEGFYLAGDYTKQKYLASMEGAVLSGKLCAQSVVEDYKMLSRRSLKSLQSEVPVAS | 1.3 ± 0.2 | 53.9 ± 18.1 | 66.8 ± 20.7 |  | 
2 | Phytoene desaturase (OsPDS-His6) (Oryza sativa Indica Group; R300S) (protein) AGQLSSFFRNSEQPTKPLQVVIAGAGLAGLSTAKYLADAGHKPILLEARDVLGGKIAAWKDEDGDWYETGLHIFFGAYPNIQNLFGELGINDRLQWKEHSMIFAMPNKPGEFSRFDFPETLPAPLNGIWAILRNNEMLTWPEKVKFALGLLPAMVGGQAYVEAQDGFTVSEWMKKQGVPDRVNDEVFIAMSKALNFINPDELSMQCILIALNSFLQEKHGSKMAFLDGNPPERLCMPIVDHVRSLGGEVRLNSRIQKIELNPDGTVKHFALTDGTQITGDAYVFATPVDILKLLVPQEWKEISYFKKLEKLVGVPVINVHIWFDRKLKNTYDHLLFSRSSLLSVYADMSVTCKEYYDPNRSMLELVFAPAEEWVGRSDTEIIEATMQELAKLFPDEIAADQSKAKILKYHVVKTPRSVYKTIPDCEPCRPLQRSPIEGFYLAGDYTKQKYLASMEGAVLSGKLCAQSVVEDYKMLSRRSLKSLQSEVPVAS |  |  |  | 4.5 ± 2.6 | 0.4 ± 0.1
